# Laboratory results as given in paper PMC5362816, “Calmodulin is responsible for Ca^2+-dependent regulation of TRPA1 Channels” (Scientific Reports, 2017).
# B1: CaMBD peptide (peptide)
# peptide: LWYLRKVDQRSTIVYPN
# notes: also called WT peptide; the 17AA; source: synthetic peptide (Biomatik)
# Assays:
# pure CaM (Sigma) = target: T1, pure CaM (Sigma) (UniProt P62157 1-149); assay: native gel or EMSA; 600 nM CaM incubated with different molar ratios of peptide; 10 mM Na-HEPES pH 7.2, 2 mM Ca2+, room temperature, 1 h; 12% non-denaturing PAGE with 2 mM Ca2+; silver staining (read-out: CaM band intensity, no mobility shift); conditions: both partners purified
# T1 construct: pure calmodulin bought from Sigma; also called calmodulin; source: bought: Sigma
# CaM-agarose (Sigma) = target: T2, CaM-agarose (Sigma) (UniProt P62157 1-149, coupled to agarose); assay: pull-down; competition: purified GST-C1A1 fragment on CaM-agarose with 200 μM peptide (CaMBD peptide, scrambled peptide or CALP2); conditions: both partners purified
# T2 construct: calmodulin coupled to agarose, bought from Sigma; Commercial reagent; also called calmodulin; source: bought: Sigma (CaM-agarose)
binder,measurement,setting,value
B1,binding result,pure CaM (Sigma),binds
same,binding result,CaM-agarose (Sigma),binds
